Source: US20230203146A1

B1: VHH 2F04 (VHH, not shown: small tags and cut ends)
VHH: EVQLVESGGGLVQAGGSLRLSCAASGFAFDDHLIGWFRQAPGKEREAVSCISRSAGSTYYADSVKGRFTISSDNAKNTVYLQMNSLKADDTAVYYCAAGPAWGRPASPLPYEYDYWGQGTQVTVSS
B2: VHH 2G01 (VHH, not shown: small tags and cut ends)
VHH: EVQLVESGGGLVQAGGSLRLSCAASGRTISSYAMAWFRQAPGKEREFVAAISLSGDSTYYADSVKGRFTISRDNAKNTVYLQMNSLKPEDTAEYYCAATDWDFEDIPEYYCSGYGCDESLFDSWGQGTQVTVSS
B3: VHH 10A03 (VHH, not shown: small tags and cut ends)
VHH: EVQLVESGGGSVQAGGSLRLSCAASERTFSPYAMGWFRQAPGKEREFVAHITWSAGSTYYADSVKGRFTISRDNAKNTVYLQMNSLKPEDTAVYYCAAKRRYGIVDRDYNDWGQGTQVTVSS
B4: VHH 22G11 (VHH, not shown: small tags and cut ends)
VHH: EVQLVESGGGLVQAGGSLRLSCAVSGFTFDDYAIGWFRQAPGKEREGVSCISRSDGSPYYADSVKGRFTISSDNAKGTVYLQMSSLKPEDTAVYYCAASWSGAYYSGTYYCDRLYEYDAWGQGTQVTVSS
B5: VHH 3F02 (VHH, not shown: small tags and cut ends)
VHH: EVQLVESGGGLVQVGDSLRLACAASGRTFSTYLMVGWFRQAPGKEREFAAGIWSSGDTAYADSVKGRFTISRDNAKNTVYLQMNSLKTEDTAVYYCAGSYDGNYYIPGFYKDWGQGTQVTVSS
B6: VHH 6H05 (VHH, not shown: small tags and cut ends)
VHH: EVQLVESGGGLVQAGGSLRLSCAASGFTFDDYAIGWFRQAPGKEREGVSCISSSDGSTAYADSVKGRFTISSDNAKNTVYLQMNSLKPEDTAVYYCTAVPATRRTPQMVAANVCWLAEYEYDYWGQGTQVTVSS
B7: VHH 25B01 (VHH, not shown: small tags and cut ends)
VHH: EVQLVESGGGLVQAGGSLRLSCAASGFTFDDYAIGWFRQAPGKEREGVSCISSSDGSTYYADSVKGRFTISSDNAKNTVYLQMNSLKPEDTAVYYCAAAWGASRLPIGTMPPYEYDYWGQGTQVTVSS
B8: VHH 3A07 (VHH, not shown: small tags and cut ends)
VHH: EVQLVESGGGLVQPGGSLRLSCAASGFTLDYDAIGWFRQAPGKEREGVSCITSSDGITYYADSVKGRFTISRDNAKNTVYLQMNSLKPEDTAVYYCATGNRRIYYSDYALACFPYEYDYWGQGTQVTVSS
B9: VHH 00923 (VHH, not shown: small tags and cut ends)
VHH: DVQLVESGGGLVQPGGSLRLSCAASGFTLDDYAIGWFRQAPGKEREGVSAIRDNGGSTYYADSVKGRFTISSDNSKNTVYLQMNSLRPEDTAVYYCAAVPAGRLRFGEQWYPLYEYDAWGQGTLVTVSS
B10: VHH 19A03 (VHH, not shown: small tags and cut ends)
VHH: EVQLVESGGGLVQAGGSLRLSCAASGFTFDDYAIAWFRQAPGKEREGISCITPSDDRTYYADSVKGRFIISSDNAKNTVYLQMNSLKPEDTADYYCAAVPRLRGLGYWPYPEYEYDYWGQGTQVTVSS
B11: VHH 23C10 (VHH, not shown: small tags and cut ends)
VHH: EVQLVESGGGLVQPGGSLRLSCAASGFALDYYAIGWFRQAPGKEREGVSCISSSDGSTYYADSVKGRFTISRDNAKNTVYLQMNSLKPEDTAVYYCATDSLGYGSSCRMAPYEYDYWGQGTQVTVSS
B12: VHH 15A06 (VHH, not shown: small tags and cut ends)
VHH: EVQLVESGGGLVQAGGSLRLSCAASGRTFSSYAMGWFRQAPGKEREFVARISWNGGSTYHADSVKGRFTISRDNPKNTVYLQMDSLKPEDAAIYYCAASIALVGGVTPHSYDYWGQGTQVTVSS

Tests used:
[1] = target: FLAG tagged human Ang2 (Alexis Biochemicals) (human) (UniProt O15123); assay: competition ELISA, FLAG-hAng2 (0.02 nM) on coated hTie2/Fc
Chain of FLAG tagged human Ang2 (Alexis Biochemicals) (human) (O15123 19-496): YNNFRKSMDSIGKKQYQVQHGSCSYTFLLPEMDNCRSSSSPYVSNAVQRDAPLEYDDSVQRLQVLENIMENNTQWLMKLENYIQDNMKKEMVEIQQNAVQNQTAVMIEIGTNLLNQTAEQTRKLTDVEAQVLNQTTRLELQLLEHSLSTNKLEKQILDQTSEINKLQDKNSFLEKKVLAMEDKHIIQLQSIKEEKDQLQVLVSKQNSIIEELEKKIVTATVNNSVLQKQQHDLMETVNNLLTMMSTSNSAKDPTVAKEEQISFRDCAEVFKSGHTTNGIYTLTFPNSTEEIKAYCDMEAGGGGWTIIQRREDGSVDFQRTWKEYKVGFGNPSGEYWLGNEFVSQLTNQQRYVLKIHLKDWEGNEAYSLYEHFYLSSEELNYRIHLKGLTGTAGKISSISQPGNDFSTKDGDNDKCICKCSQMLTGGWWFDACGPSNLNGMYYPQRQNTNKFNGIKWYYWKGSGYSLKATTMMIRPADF

[2] = target: FLAG tagged human Ang2 (Alexis Biochemicals) (human) (UniProt O15123); assay: AlphaScreen competition, periplasmic extract, FLAG-hAng2 / biotin-hTie2/Fc
[3] = target: FLAG tagged human Ang2 (Alexis Biochemicals) (human) (UniProt O15123); assay: competition ELISA, periplasmic extract, FLAG-hAng2 on hTie2/Fc
[4] = target: FLAG-tagged human Ang2 (human) (UniProt O15123); assay: competition ELISA: FLAG-hAng2 binding to coated hTie2-Fc
Chain of FLAG-tagged human Ang2 (human) (O15123 19-496): as above

| Binder | IC50 [1] [nM] | % inh [2] [%] | % inh [3] [%] | IC50 [4] [nM] |
| --- | --- | --- | --- | --- |
| B1 | 2.8 |  |  |  |
| B2 |  | 55 | 39 |  |
| B3 |  | 67 | 0 |  |
| B4 |  | 96 | 100 |  |
| B5 | 9.1 |  |  |  |
| B6 | 5.3 |  |  |  |
| B7 |  | 61 | 5 |  |
| B8 | 21 |  |  |  |
| B9 |  |  |  | 0.7 |
| B10 |  | 74 | 74 |  |
| B11 |  | 57 | 37 |  |
| B12 |  | 72 | 0 |  |
